The values below come from PMC2809015.

For assay [1], the target named is IscA, FeS cluster assembly scaffold protein (E. coli) (UniProt P0AAC8).
Assay [2] addresses IscU, FeS cluster assembly scaffold protein (E. coli) (UniProt P0ACD4).
The target of assay [3] is HscB, co-chaperone of HscA (E. coli) (UniProt P0A6L9).
For a further assay, the target named is IscU (Escherichia coli) (UniProt P0ACD4). The experiment in a line: surface plasmon resonance. The settings on record: cited from earlier work.
IscU (Escherichia coli), sequence (P0ACD4 whole entry): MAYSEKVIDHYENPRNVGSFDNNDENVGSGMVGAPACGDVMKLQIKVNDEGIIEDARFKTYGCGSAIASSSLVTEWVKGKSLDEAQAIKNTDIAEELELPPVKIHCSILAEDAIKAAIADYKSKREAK

HscA, sequence (P0A6Z1 whole entry): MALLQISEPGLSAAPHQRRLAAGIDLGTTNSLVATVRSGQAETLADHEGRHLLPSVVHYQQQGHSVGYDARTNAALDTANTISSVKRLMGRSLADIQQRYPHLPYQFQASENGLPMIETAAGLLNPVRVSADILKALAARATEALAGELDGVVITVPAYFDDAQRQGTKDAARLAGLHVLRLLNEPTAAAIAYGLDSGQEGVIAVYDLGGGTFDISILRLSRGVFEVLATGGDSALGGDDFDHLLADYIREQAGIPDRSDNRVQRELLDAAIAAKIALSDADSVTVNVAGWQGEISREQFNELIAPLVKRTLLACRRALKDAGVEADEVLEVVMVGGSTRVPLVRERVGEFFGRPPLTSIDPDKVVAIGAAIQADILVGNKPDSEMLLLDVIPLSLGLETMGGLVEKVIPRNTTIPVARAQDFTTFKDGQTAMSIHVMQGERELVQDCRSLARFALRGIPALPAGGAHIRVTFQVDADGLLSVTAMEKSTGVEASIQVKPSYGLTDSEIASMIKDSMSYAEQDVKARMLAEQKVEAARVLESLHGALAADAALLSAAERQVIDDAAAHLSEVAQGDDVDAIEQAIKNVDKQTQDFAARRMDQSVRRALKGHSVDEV
Biotin synthase (BioB), cluster state not stated for the experiment, sequence (P12996 whole entry): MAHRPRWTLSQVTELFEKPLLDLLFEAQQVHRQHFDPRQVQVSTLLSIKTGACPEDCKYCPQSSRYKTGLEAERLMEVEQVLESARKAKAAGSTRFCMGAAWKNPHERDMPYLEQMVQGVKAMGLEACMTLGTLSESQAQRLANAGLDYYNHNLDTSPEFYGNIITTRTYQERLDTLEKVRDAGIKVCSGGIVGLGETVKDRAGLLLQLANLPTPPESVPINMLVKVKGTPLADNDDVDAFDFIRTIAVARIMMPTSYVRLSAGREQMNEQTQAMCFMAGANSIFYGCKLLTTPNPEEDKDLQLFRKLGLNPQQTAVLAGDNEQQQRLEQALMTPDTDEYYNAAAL
IscU, FeS cluster assembly scaffold protein (E. coli), sequence (P0ACD4 whole entry): as the sequence (P0ACD4 whole entry) above
IscA, FeS cluster assembly scaffold protein (E. coli), sequence (P0AAC8 whole entry): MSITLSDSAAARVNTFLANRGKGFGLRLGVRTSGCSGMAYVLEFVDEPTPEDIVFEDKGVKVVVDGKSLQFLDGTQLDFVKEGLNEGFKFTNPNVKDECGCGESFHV
HscB, co-chaperone of HscA (E. coli), sequence (P0A6L9 whole entry): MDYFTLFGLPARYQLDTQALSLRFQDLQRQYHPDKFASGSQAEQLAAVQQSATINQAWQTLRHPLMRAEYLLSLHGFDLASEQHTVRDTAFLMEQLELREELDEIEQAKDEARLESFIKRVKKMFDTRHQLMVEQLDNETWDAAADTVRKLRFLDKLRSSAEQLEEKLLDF

The Kd is the equilibrium constant for the complex coming apart. In the case of “Biotin synthase (BioB), cluster state not stated for the experiment (from UniProt P12996 1-346) (enzyme)”, the Kd in assay [1], in assay [2] and in assay [3] was greater than 10 µM each time.

As to HscA (from UniProt P0A6Z1), the Kd with IscU (Escherichia coli) is 9.3 µM.
